Test results reported in patent publication US10143747B2, “Breast cancer therapeutics” (IMBA—INSTITUT FÜR MOLEKULARE BIOTECHNOLOGIE GMBH, priority 2010, dated 2018).

Test system: human SKBR3 breast cancer cells
Assay: Soft-Agar Colony Formation Assay (anchorage-independent growth)
Type: cell-based
Conditions: OPG 1 μg/ml with RANKL 1 μg/ml, 18 days in culture
Procedure: a, Western blotting for phosphorylated (P) IKKα, total IKKα, phosphorylated (P) p65 NFκB, total p65 NFκB, phosphorylated (P) IκBα, and total IκBα in isolated primary mouse mammary gland epithelial cells (MECs) in response to RANKL stimulation (1 μg/ml). β-actin is shown as loading control. b, Western blotting for IKKα, IKKβ, IKKγ, phosphorylated (P) p65 NFκB, total p65 NFκB, phosphorylated (P) IκBα, and total IκBα in pooled late stage mammary adenocarconimas (n=4 for each lane) that developed in control, RANK^Δmam and IKKΔ^Δmam females. β-actin is shown as loading control c, Expression of RANK, CyclinD1, and p21 mRNA in late stage mammary adenocacinomas that developed in control, RANK^Δmam, and IKKα^Δmam females. Expression was determined by qRT-PCR. Data are mean values+/−sem. n=4 per group. d, Soft-Agar Colony Formation Assay. Growth of human SKBR3 breast cancer cells in soft agar in response to stimulation with RANKL (1 μg/ml) or EGF (100 ng/ml). Anchorage-independent, macroscopic colonies formed after 18 days in culture with RANKL, which was prevented by the decoy receptor OPG (1 μg/ml). […] Apoptosis was detected by immunostaining for active Caspase 3. f, Apoptotic nuclei of epithelial cells (arrows) are shown for representative mammary gland sections. Magnifications×40. g, Quantification of mammary epithelial apoptosis. A minimum of 5000 nuclei was counted for each mouse. […]

B1: OPG: secreted decoy receptor of RANKL, used as RANKL inhibitor (1 μg/ml) (protein, UniProt O00300 22-401, looked up)
Tumor necrosis factor …: ETFPPKYLHYDEETSHQLLCDKCPPGTYLKQHCTAKWKTVCAPCPDHYYTDSWHTSDECLYCSPVCKELQYVKQECNRTHNRVCECKEGRYLEIEFCLKHRSCPPGFGVVQAGTPERNTVCKRCPDGFFSNETSSKAPCRKHTNCSVFGLLLTQKGNATHDNICSGNSESTQKCGIDVTLCEEAFFRFAVPTKFTPNWLSVLVDNLPGTKVNAESVERIKRQHSSQEQTFQLLKLWKHQNKDQDIVKKIIQDIDLCENSVQRHIGHANLTFEQLRSLMESLPGKKVGAEDIEKTIKACKPSDQILKLLSLWRIKNGDQDTLKGLMHALKHSKTYHFPKTVTQSLKKTIRFLHSFTMYKLYQKLFLEMIGNQVQSVKISCL
With B1 the “effect on RANKL-induced anchorage-independent macroscopic colonies” value was “prevented”.
